US20220380463A1 (Adimab, published 2022)
Residue numbers refer to the chain shown, from its start.

Legend:
[1] = target: T1, Cynomolgus CD3εδ Fc heterodimer (Cy CD3ε Fc / CD3δ Fc-HIS) (cynomolgus, UniProt Q95LI8 22-100); test: BLI (Octet), IgG on AHC sensor, pH 6.0
T1 chain 1: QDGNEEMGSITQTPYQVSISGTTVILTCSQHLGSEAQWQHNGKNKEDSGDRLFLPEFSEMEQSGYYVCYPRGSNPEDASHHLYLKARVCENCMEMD
T1 chain 2: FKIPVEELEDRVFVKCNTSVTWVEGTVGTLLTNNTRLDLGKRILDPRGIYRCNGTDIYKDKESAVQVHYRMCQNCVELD

[2] = target: T2, human CD3 on CD3+ Jurkat cells (human, UniProt P07766 23-207); test: flow cytometry, 100 nM IgG on CD3+ Jurkat cells, pH 7.4
T2 construct: whole, on cells; Native CD3 complex on cells; the other CD3 chains are not specified for this assay; also called Human CD3+ Jurkat
T2 sequence (P07766 23-207): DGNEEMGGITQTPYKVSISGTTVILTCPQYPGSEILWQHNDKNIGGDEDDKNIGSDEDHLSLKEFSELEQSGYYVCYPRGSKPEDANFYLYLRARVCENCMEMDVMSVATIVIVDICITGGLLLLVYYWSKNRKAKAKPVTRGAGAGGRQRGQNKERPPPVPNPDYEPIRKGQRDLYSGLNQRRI
Experimental: (§1) Specificity of the anti-CD3 antibodies for human CD3+ Jurkat cells compared to CHO-S cells at pH 6.0 and 7.4 was determined using a FACS cell binding assay. Briefly, CD3+ human Jurkat cells and CHO-S cells were thawed and washed with cold PBSF buffer, pH 7.4 (PBS+0.1% BSA, pH 7.4). About 200,000 cells were aliquoted per well of a 96-well plate and pelleted by centrifugation (5 minutes at 500×g). The cells were washed with either PBSF pH 7.4 or PBSF pH 6.0 (PBS+0.1% BSA, pH 6.0), and then resuspended in 100 ul in either PBSF pH 7.4 or PBSF pH 6.0 with IgG antibody produced in yeast (100 nM). The mixture (cells+antibody) was incubated for 20 minutes on ice, then washed twice with either PBSF pH 7.4 or PBSF pH 6.0. Cells were resuspended in 50 ul of propidium iodide (1:500 dilution) and anti-human IgG-RPE (1:100 dilution) prepared in either PBSF pH 7.4 or PBSF pH 6.0, then incubated for 20 minutes on ice in the dark before cells were washed twice with either PBSF pH 7.4 or PBSF pH 6.0. Binding was analyzed on FACS Canto II.
(§2) Cell binding assays. CD3+ human Jurkat cells (ATCC) and CHO-S cells (Invitrogen/ThermoFisher) were thawed and washed with cold PBSF buffer, pH 7.4 (PBS+0.1% BSA, pH 7.4). About 200,000 cells were aliquoted per well of a 96-well plate (FACS Assay Plate VWR BD 353263) and pelleted by centrifugation (5 minutes at 500×g). The cells were washed with either PBSF pH 7.4 or PBSF pH 6.0 (PBS+0.1% BSA, pH 6.0), and then resuspended in 100 ul in either PBSF pH 7.4 or PBSF pH 6.0 with IgG antibody (100 nM) produced in yeast as described above. The mixture (cells+antibody) was incubated for 20 minutes on ice, then washed twice with either PBSF pH 7.4 or PBSF pH 6.0. Cells were resuspended in 50 ul of propidium iodide (Roche; 1:500 dilution) and anti-human IgG-RPE (Southern Biotech; 1:100 dilution) prepared in either PBSF pH 7.4 or PBSF pH 6.0, then incubated for 20 minutes on ice in the dark before cells were washed twice with either PBSF pH 7.4 or PBSF pH 6.0. Binding was analyzed on FACS Canto II.

[3] = target: T2, human CD3 on CD3+ Jurkat cells; test: flow cytometry on CD3+ Jurkat cells, ratio of MFI at pH 6.0 to pH 7.4
Experimental: as §1, §2

[4] = target: T2, human CD3 on CD3+ Jurkat cells; test: flow cytometry, 100 nM IgG on CD3+ Jurkat cells, pH 6.0
Experimental: as §1, §2

B1: SAD10319_P05_D04 (ADI-57409) (antibody, V domains shown)
VH: QVQLVQSGAEVKKPGASVKVSCKASGYTFTSDYMHWVRQAPGQRLEWMGWINAGTGATDYSQKFQGRVTITRDTSASTAYMELSSLRSEDTAVYYCAHDAYGRYHYDVWGQGTLVTVSS
VL: DIVMTQSPDSLAVSLGERATINCKSSQSLLNARTGKNYLAWYQQKPGQPPKLLIYWASTRESGVPDRFSGSGSGTDFTLTISSLQAEDVAVYYCKQSYSRRTFGGGTKVEIK
notes: IgG; also called Ab137
[1]
  koff: 0.022 s⁻¹

B2: SAD10319_P06_E10 (ADI-57428) (antibody, V domains shown)
VH: B1 VH with S31Q, D32Y, Y33D, R44T, W50D, A57V, D59V, H98R, H105F
VL: B1 VL
notes: IgG; also called Ab157
[1]
  koff: 0.00575 s⁻¹

B3: SAD10319_P05_E04 (ADI-57411) (antibody, V domains shown)
VH: QVQLVQSGAEVKKPGASVKVSCKASGYTFTGYEMHWVRQAPGQRLEWMGWINPSTGNTVYSQKFQGRVTITRDTSASTAYMELSSLRSEDTAVYYCARDHYGHYFYDVWGQGTLVTVSS
VL: B1 VL
notes: IgG; also called Ab139
[1]
  koff: 0.00373 s⁻¹

B4: SAD10319_P05_G03 (ADI-57415) (antibody, V domains shown)
VH: B1 VH with T30H, D32Y, Y33N, Q43H, A53P, G54D, H98R, H105F
VL: B1 VL
notes: IgG; also called Ab143
[1]
  koff: 0.0167 s⁻¹

B5: SAD10319_P06_E08 (ADI-57426) (antibody, V domains shown)
VH: B3 VH with T30I, G31K, E33V, W50D, N52D, S54D, N57A, V59E, H100D, G102H
VL: B1 VL
notes: IgG; also called Ab155
[1]
  koff: 0.0105 s⁻¹

B6: SAD10319_P05_F01 (ADI-57412) (antibody, V domains shown)
VH: B1 VH with S31D, Y33A, R44S, N52D, A57N, D59Y, R103H, H105F
VL: B1 VL
notes: IgG; also called Ab140
[1]
  koff: 0.0214 s⁻¹

B7: SAD10319_P06_C10 (ADI-57423) (antibody, V domains shown)
VH: QVQLVQSGAEVKKPGASVKVSCKASGYTFTEYVMHWVRQAPGPRLEWMGDIDAGTGATKYSQKFQGRVTITRDTSASTAYMELSSLRSEDTAVYYCARDAYHHYFYDVWGQGTLVTVSS
VL: B1 VL
notes: IgG; also called Ab152
[1]
  koff: 0.00318 s⁻¹

B8: SAD10319_P06_D12 (ADI-57425) (antibody, V domains shown)
VH: B7 VH with T30N, E31R, P43Q, D50G, Y101H, H102R
VL: B1 VL
[1]
  koff: 0.0192 s⁻¹

B9: SAD10319_P05_G04 (ADI-57416) (antibody, V domains shown)
VH: B1 VH with D32Y, Y33G, N52D, A53P, G54V, H98R, Y101H, H105F, V108H
VL: B1 VL
notes: IgG; also called Ab144
[1]
  koff: 0.00389 s⁻¹

B10: LAD9963_P01_E06 (ADI-57443) (antibody, V domains shown)
VH: QVQLVQSGAEVKKPGASVKVSCKASGFNIKDYYMHWVRQAPGQRLEWMGWIDLENANTIYDAKFQGRVTITRDTSASTAYMELSSLRSEDTAVYYCARDAYGRYFYDVWGQGTLVTVSS
VL: B1 VL with R33H
[1]
  koff: 0.000866 s⁻¹

B11: SAD10319_P06_E09 (ADI-57427) (antibody, V domains shown)
VH: B3 VH with G31A, E33D, S54D, N57A, H100A, H103R
VL: B1 VL
notes: IgG; also called Ab156
[1]
  koff: 0.0122 s⁻¹

B12: SAD10319_P06_A10 (ADI-57419) (antibody, V domains shown)
VH: B3 VH with S54V, N57A, V59A, H100A, V108H
VL: B1 VL
notes: IgG; also called Ab148
[1]
  koff: 0.0246 s⁻¹

B13: SAD10319_P06_F07 (ADI-57429) (antibody, V domains shown)
VH: B7 VH with T30E, E31S, V33D, P43Q, R44P, D50W, K59T
VL: B1 VL
notes: IgG; also called Ab159
[1]
  koff: 0.0251 s⁻¹

B14: SAD10319_P06_A11 (ADI-57420) (antibody, V domains shown)
VH: B3 VH with T30D, G31S, Y32I, E33A, S54A, V59D, H100A, V108H
VL: B1 VL
notes: IgG; also called Ab149
[1]
  koff: 0.00279 s⁻¹

B15: SAD10319_P06_B11 (ADI-57422) (antibody, V domains shown)
VH: B7 VH with T30H, E31S, V33D, P43Q, D50W, K59T, H102G
VL: B1 VL
notes: IgG; also called Ab151
[1]
  koff: 0.0101 s⁻¹

B16: SAD10319_P05_G01 (ADI-57413) (antibody, V domains shown)
VH: B7 VH with T30N, E31N, V33A, P43Q, R44S, D50W, A57N, K59D, Y101H, H103R
VL: B1 VL
[1]
  koff: 0.0236 s⁻¹

B17: LAD9956_P01_C03 (ADI-57440) (antibody, V domains shown)
VH: B10 VH
VL: B1 VL with R33H, G35H
notes: IgG; also called Ab171
[1]
  koff: 0.000913 s⁻¹

B18: SAD10319_P06_G11 (ADI-57432) (antibody, V domains shown)
VH: B3 VH with G31D, E33D, P53A, S54G, T55D, G56A, N57A, H100A, V108H
VL: B1 VL
notes: IgG; also called Ab162
[1]
  koff: 0.00924 s⁻¹

B19: SAD10319_P05_G02 (ADI-57414) (antibody, V domains shown)
VH: B3 VH with G31T, E33A, N52D, S54V, V59K, H103R, V108H
VL: B1 VL
notes: IgG; also called Ab142
[1]
  koff: 0.0156 s⁻¹

B20: SAD10319_P06_F10 (ADI-57430) (antibody, V domains shown)
VH: B3 VH with T30V, G31S, E33D, Q43P, R44S, N52D, S54N, N57A
VL: B1 VL
notes: IgG; also called Ab160
[1]
  koff: 0.00663 s⁻¹

B21: SAD10319_P06_B10 (ADI-57421) (antibody, V domains shown)
VH: B7 VH with P43Q
VL: B1 VL
notes: IgG; also called Ab150
[1]
  koff: 0.002 s⁻¹

B22: LAD9966_P01_A08 (ADI-57445) (antibody, V domains shown)
VH: B10 VH
VL: B1 VL with Y38H
notes: IgG; also called Ab176
[1]
  koff: 0.0035 s⁻¹

B23: SAD10319_P06_H11 (ADI-57436) (antibody, V domains shown)
VH: B7 VH with E31D, V33D, P43H, D50W, D52N, T55D, G56A, K59V, H102G, V108H
VL: B1 VL
notes: IgG; also called Ab166
[1]
  koff: 0.0285 s⁻¹

B24: LAD5224_P03_A01 (ADI-26906) (antibody, V domains shown)
VH: B10 VH
VL: B1 VL
notes: IgG; also called Ab1; parent clone
[2]
  MFI pH 7.4: 5270 MFI
[3]
  MFI pH 6.0/MFI pH 7.4: 1.1
[4]
  MFI pH 6.0: 6040 MFI

B25: SAD10319_P05_H06 (ADI-57417) (antibody, V domains shown)
VH: B7 VH with V33D, R44T, D50W, K59V, H102G, H103R, V108H
VL: B1 VL
notes: IgG; also called Ab145
[1]
  koff: 0.0104 s⁻¹

B26: SAD10319_P06_H10 (ADI-57435) (antibody, V domains shown)
VH: B7 VH with T30E, E31S, V33D, D50W, A57N, R72A, T74E, A76T, A100H, H102G
VL: B1 VL
notes: IgG; also called Ab165
[1]
  koff: 0.0267 s⁻¹

B27: SAD10319_P06_C12 (ADI-57424) (antibody, V domains shown)
VH: B3 VH with T30D, G31S, Q43H, S54L, N57A, V59K
VL: B1 VL
notes: IgG; also called Ab153
[1]
  koff: 0.00756 s⁻¹

B28: SAD10319_P06_H07 (ADI-57433) (antibody, V domains shown)
VH: B3 VH with T30V, G31S, E33N, W50S, P53A, S54G, T55D, G56A, V59K
VL: B1 VL
notes: IgG; also called Ab163
[1]
  koff: 0.00901 s⁻¹

B29: SAD10319_P05_D05 (ADI-57410) (antibody, V domains shown)
VH: B7 VH with T30A, E31D, V33A, P43H, D52I, A100H, H102G
VL: B1 VL
notes: IgG; also called Ab138
[1]
  koff: 0.0158 s⁻¹

B30: SAD10319_P06_H08 (ADI-57434) (antibody, V domains shown)
VH: B7 VH with T30E, E31S, V33D, P43Q, R44T, D50W, K59T
VL: B1 VL
notes: IgG; also called Ab164
[1]
  koff: 0.0231 s⁻¹

B31: SAD10319_P06_G09 (ADI-57431) (antibody, V domains shown)
VH: B7 VH with T30E, E31S, V33D, D50W, K59T
VL: B1 VL
notes: IgG; also called Ab161
[1]
  koff: 0.00258 s⁻¹

B32: LAD9965_P01_H07 (ADI-48666) (antibody, V domains shown)
VH: B10 VH
VL: B1 VL with K36H
notes: IgG; also called Ab177
[2]
  MFI pH 7.4: 4800 MFI
[3]
  MFI pH 6.0/MFI pH 7.4: 1.2
[4]
  MFI pH 6.0: 5700 MFI
